First the molecules themselves.
B1: Erk2-binding clone group N (RNF8-FHA domain-modified protein) (designed binder)
chain: GEPGFFVTGDRAGGRSWCLRRVGMSAGWLLLEDGCEVTVGWGGGVTYQLVSKGYLWQRRTNHCVLKQNPEGQWTIMDNKVLGGVWLNRARLEPLRVYSIHQGDYIQLGLRSLLLENAEYEYEVTEEDWETIYPCLSPKNDQMIEKN
notes: Purified protein from E. coli; also called Erk2 clone N; clone N; not shown: N-terminal fusion partner from vector pET-MalStrep (MBP/Strep) and FLAG tag
B2: Trx-binding clone group A (RNF8-FHA domain-modified protein) (designed binder)
chain: GEPGFFVTGDRAGGRSWCLRRVGMSAGWLLLEDGCEVTVGFVPGVTYQLVSKVLFAEKNANHCVLKQNPEGQWTIMDNKVWNGVWLNRARLEPLRVYSIHQGDYIQLGQVSPLGENAEYEYEVTEEDWETIYPCLSPKNDQMIEKN
notes: also called Trx clone A; not shown: N-terminal fusion partner from vector pET-MalStrep (MBP/Strep) and FLAG tag
B3: Erk2-binding clone group M (RNF8-FHA domain-modified protein) (designed binder)
chain: GEPGFFVTGDRAGGRSWCLRRVGMSAGWLLLEDGCEVTVGFGTGVTYQLVSKYLPSWFTYNHCVLKQNPEGQWTIMDNKSLTGVWLNRARLEPLRVYSIHQGDYIQLGALRCRLENAEYEYEVTEEDWETIYPCLSPKNDQMIEKN
notes: Only tested in the primary screening ELISA (E. coli extract); not shown: N-terminal fusion partner from vector pET-MalStrep (MBP/Strep) and FLAG tag
B4: Erk2-binding clone group L (RNF8-FHA domain-modified protein) (designed binder)
chain: GEPGFFVTGDRAGGRSWCLRRVGMSAGWLLLEDGCEVTVGFGTGVTYQLVSKYLPSWFTYNHCVLKQNPEGQWTIMDNKSLTGVWLNRARLEPLRVYSIHQGDYIQLGAMFSDVENAEYEYEVTEEDWETIYPCLSPKNDQMIEKN
notes: as for B3
B5: Erk2-binding clone group I (RNF8-FHA domain-modified protein) (designed binder)
chain: GEPGFFVTGDRAGGRSWCLRRVGMSAGWLLLEDGCEVTVGFGTGVTYQLVSKYLPSWFTYNHCVLKQNPEGQWTIMDNKSLTGVWLNRARLEPLRVYSIHQGDYIQLGSLAANLENAEYEYEVTEEDWETIYPCLSPKNDQMIEKN
notes: as for B3
B6: Erk2-binding clone group F (RNF8-FHA domain-modified protein) (designed binder)
chain: GEPGFFVTGDRAGGRSWCLRRVGMSAGWLLLEDGCEVTVGFGTGVTYQLVSKYLPSWFTYNHCVLKQNPEGQWTIMDNKSLTGVWLNRARLEPLRVYSIHQGDYIQLGSMRHMLENAEYEYEVTEEDWETIYPCLSPKNDQMIEKN
notes: as for B3
B7: Erk2-binding clone group G (RNF8-FHA domain-modified protein) (designed binder)
chain: GEPGFFVTGDRAGGRSWCLRRVGMSAGWLLLEDGCEVTVGFGTGVTYQLVSKYLPSWFTYNHCVLKQNPEGQWTIMDNKSLTGVWLNRARLEPLRVYSIHQGDYIQLGSLPGLAENAEYEYEVTEEDWETIYPCLSPKNDQMIEKN
notes: as for B3
B8: Erk2-binding clone group K (RNF8-FHA domain-modified protein) (designed binder)
chain: GEPGFFVTGDRAGGRSWCLRRVGMSAGWLLLEDGCEVTVGFGTGVTYQLVSKYLPSWFTYNHCVLKQNPEGQWTIMDNKSLTGVWLNRARLEPLRVYSIHQGDYIQLGEDRFGLENAEYEYEVTEEDWETIYPCLSPKNDQMIEKN
notes: as for B3
B9: Erk2-binding clone group E (RNF8-FHA domain-modified protein) (designed binder)
chain: GEPGFFVTGDRAGGRSWCLRRVGMSAGWLLLEDGCEVTVGFGTGVTYQLVSKYLPSWFTYNHCVLKQNPEGQWTIMDNKSLTGVWLNRARLEPLRVYSIHQGDYIQLGETGLEWENAEYEYEVTEEDWETIYPCLSPKNDQMIEKN
notes: as for B3
B10: Erk2-binding clone group H (RNF8-FHA domain-modified protein) (designed binder)
chain: GEPGFFVTGDRAGGRSWCLRRVGMSAGWLLLEDGCEVTVGFGTGVTYQLVSKYLPSWFTYNHCVLKQNPEGQWTIMDNKSLTGVWLNRARLEPLRVYSIHQGDYIQLGLVAYGAENAEYEYEVTEEDWETIYPCLSPKNDQMIEKN
notes: as for B3
B11: Trx-binding clone group C (RNF8-FHA domain-modified protein) (designed binder)
chain: GEPGFFVTGDRAGGRSWCLRRVGMSAGWLLLEDGCEVTVGFVPGVTYQLVSKVLFAEKNANHCVLKQNPEGQWTIMDNKVWNGVWLNRARLEPLRVYSIHQGDYIQLGGVFRKGENAEYEYEVTEEDWETIYPCLSPKNDQMIEKN
notes: Loop 4 GVFRKG; loops 1-3 as Trx group A; not shown: N-terminal fusion partner from vector pET-MalStrep (MBP/Strep) and FLAG tag
B12: Trx-binding clone group G (RNF8-FHA domain-modified protein) (designed binder)
chain: GEPGFFVTGDRAGGRSWCLRRVGMSAGWLLLEDGCEVTVGFLPGVTYQLVSKPMRREKNMNHCVLKQNPEGQWTIMDNKVRIGVWLNRARLEPLRVYSIHQGDYIQLGQVSPLGENAEYEYEVTEEDWETIYPCLSPKNDQMIEKN
notes: not shown: N-terminal fusion partner from vector pET-MalStrep (MBP/Strep) and FLAG tag
B13: Trx-binding clone group D (RNF8-FHA domain-modified protein) (designed binder)
chain: GEPGFFVTGDRAGGRSWCLRRVGMSAGWLLLEDGCEVTVGFVPGVTYQLVSKVLFAEKNANHCVLKQNPEGQWTIMDNKVWNGVWLNRARLEPLRVYSIHQGDYIQLGRGCLGLENAEYEYEVTEEDWETIYPCLSPKNDQMIEKN
notes: Loop 4 RGCLGL; loops 1-3 as Trx group A; not shown: N-terminal fusion partner from vector pET-MalStrep (MBP/Strep) and FLAG tag
B14: Trx-binding clone group H (RNF8-FHA domain-modified protein) (designed binder)
chain: GEPGFFVTGDRAGGRSWCLRRVGMSAGWLLLEDGCEVTVGSDWGVTYQLVSKRWLGNVVFNHCVLKQNPEGQWTIMDNKAGHGVWLNRARLEPLRVYSIHQGDYIQLGEPSSLHENAEYEYEVTEEDWETIYPCLSPKNDQMIEKN
notes: as for B12
B15: Erk2-binding clone group B (RNF8-FHA domain-modified protein) (designed binder)
chain: GEPGFFVTGDRAGGRSWCLRRVGMSAGWLLLEDGCEVTVGFGTGVTYQLVSKYLPSWFTYNHCVLKQNPEGQWTIMDNKSLTGVWLNRARLEPLRVYSIHQGDYIQLGALKQSLENAEYEYEVTEEDWETIYPCLSPKNDQMIEKN
notes: Loop 4 ALKQSL; loops 1-3 as group A; also called Erk2 clone B; not shown: N-terminal fusion partner from vector pET-MalStrep (MBP/Strep) and FLAG tag
B16: Erk2-binding clone group D (RNF8-FHA domain-modified protein) (designed binder)
chain: GEPGFFVTGDRAGGRSWCLRRVGMSAGWLLLEDGCEVTVGFGTGVTYQLVSKYLPSWFTYNHCVLKQNPEGQWTIMDNKSLTGVWLNRARLEPLRVYSIHQGDYIQLGSHKWWVENAEYEYEVTEEDWETIYPCLSPKNDQMIEKN
notes: Loop 4 SHKWWV; loops 1-3 as group A; also called Erk2 clone D; not shown: N-terminal fusion partner from vector pET-MalStrep (MBP/Strep) and FLAG tag
B17: Erk2-binding clone group C (RNF8-FHA domain-modified protein) (designed binder)
chain: GEPGFFVTGDRAGGRSWCLRRVGMSAGWLLLEDGCEVTVGFGTGVTYQLVSKYLPSWFTYNHCVLKQNPEGQWTIMDNKSLTGVWLNRARLEPLRVYSIHQGDYIQLGAMTTSYENAEYEYEVTEEDWETIYPCLSPKNDQMIEKN
notes: Loop 4 AMTTSY; loops 1-3 as group A; also called Erk2 clone C; not shown: N-terminal fusion partner from vector pET-MalStrep (MBP/Strep) and FLAG tag
B18: Erk2-binding clone group A (RNF8-FHA domain-modified protein) (designed binder)
chain: GEPGFFVTGDRAGGRSWCLRRVGMSAGWLLLEDGCEVTVGFGTGVTYQLVSKYLPSWFTYNHCVLKQNPEGQWTIMDNKSLTGVWLNRARLEPLRVYSIHQGDYIQLGGIWSDLENAEYEYEVTEEDWETIYPCLSPKNDQMIEKN
notes: Expressed from pET-MalStrep in E. coli; also called Erk2 clone A; not shown: N-terminal fusion partner from E. coli vector pET-MalStrep (MBP, purified on MBPTrap)
B19: Trx clone A expressed from pcDNA3.1-RNF8-V5/His in HEK293T cells (designed binder)
chain: GEPGFFVTGDRAGGRSWCLRRVGMSAGWLLLEDGCEVTVGFVPGVTYQLVSKVLFAEKNANHCVLKQNPEGQWTIMDNKVWNGVWLNRARLEPLRVYSIHQGDYIQLGQVSPLGENAEYEYEVTEEDWETIYPCLSPKNDQMIEKN
notes: Control clone in the pull-down of endogenous Erk1/2; not shown: C-terminal V5 and His tags of vector pcDNA3.1-V5/His

T2 sequence (P0AA25 2-109 limits assumed): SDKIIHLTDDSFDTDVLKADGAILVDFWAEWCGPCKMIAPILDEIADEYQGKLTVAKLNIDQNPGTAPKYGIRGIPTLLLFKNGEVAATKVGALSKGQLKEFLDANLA

The target in one test is T1, human Erk2 (extracellular signal-regulated kinase 2), purchased from Sigma (human, UniProt P28482 1-360, limits assumed).
T1 construct: Biotinylated with EZ-Link NHS-PEO4-Biotin for selection and for SPR (SA sensor chip); immobilised directly on the plate for ELISA; also called recombinant Erk2 protein; Erk2 protein
T1 sequence (P28482 whole entry): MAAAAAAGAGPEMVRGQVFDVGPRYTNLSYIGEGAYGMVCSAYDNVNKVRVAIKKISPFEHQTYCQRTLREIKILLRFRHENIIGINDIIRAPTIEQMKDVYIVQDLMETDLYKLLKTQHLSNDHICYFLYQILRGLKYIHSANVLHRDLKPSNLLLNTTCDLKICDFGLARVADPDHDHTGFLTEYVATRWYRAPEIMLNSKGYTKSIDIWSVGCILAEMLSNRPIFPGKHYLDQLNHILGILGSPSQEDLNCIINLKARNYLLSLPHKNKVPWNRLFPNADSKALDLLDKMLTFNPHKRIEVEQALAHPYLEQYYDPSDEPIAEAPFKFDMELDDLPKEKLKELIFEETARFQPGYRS
Put plainly: SPR (BIACORE 3000), biotinylated Erk2 on SA sensor chip. For orientation: In SPR one partner is held on a chip, and binding of the other changes the refractive index at the surface.
By Kd is commonly meant the free concentration of one partner at which half of the binding sites on the other are occupied at equilibrium, for simple one-to-one binding. In turn, B1 showed a dissociation constant (Kd) of 30 nM.

A further test addresses T1, human Erk2 (extracellular …). As to the kind of experiment: Immunoprecipitation on anti-FLAG M2 agarose of recombinant Erk2 added to HEK293T cell lysate; SDS-PAGE (CBB staining) and Western blot with anti-ERK antibody.
As for B2, the binding result is on record as “no binding”.

The target is the same in a further test. As to the kind of experiment: primary screening ELISA, E. coli extract on immobilised antigen, anti-FLAG-HRP. For orientation: An ELISA detects its analyte on a solid surface through an enzyme-linked reagent.
B3: the binding result is “binds”.

On to B4, for which the binding result is given as “binds”.

For B5, the binding result is “binds”.

Take B6: the binding result was “binds”.

For the molecule B7, the binding result is listed as “binds”.

Turning to B8, the binding result is given as “binds”.

With B9, the binding result is “binds”.

As for B10, the binding result is “binds”.

Another test has as its target T2, Escherichia coli thioredoxin, purchased from Sigma (Escherichia coli, UniProt P0AA25 2-109 = thioredoxin).
T2 construct: Immobilised on the plate for ELISA; also called Trx
Put plainly: ELISA, purified clone 500 ng/well on immobilised antigen, anti-FLAG-HRP detection.
As to B2, the “ELISA (S/N)” value was determined as 30.5 S/N.

With B11, the “ELISA (S/N)” value turned out to be 4.4 S/N.

Take B12: the “ELISA (S/N)” value was determined as 22.2 S/N.

B13: the “ELISA (S/N)” value came to 4.7 S/N.

For the molecule B14, the “ELISA (S/N)” value turned out to be 5.7 S/N.

A further test addresses T1, human Erk2 (extracellular …). The description is as above.
As to B1, the “ELISA (S/N)” value was 12.6 S/N.

In the case of B15, the “ELISA (S/N)” value was found to be 30 S/N.

Consider B16, for which the “ELISA (S/N)” value was 13.6 S/N.

As for B17, the “ELISA (S/N)” value is 12 S/N.

For the molecule B18, the “ELISA (S/N)” value was 30 S/N.

A further test deals with T3, endogenous Erk2 of HEK293T cells (UniProt P28482 2-360).
T3 construct: Endogenous intracellular protein, not a recombinant construct; also called Erk1/2
T3 sequence (P28482 2-360 limits assumed): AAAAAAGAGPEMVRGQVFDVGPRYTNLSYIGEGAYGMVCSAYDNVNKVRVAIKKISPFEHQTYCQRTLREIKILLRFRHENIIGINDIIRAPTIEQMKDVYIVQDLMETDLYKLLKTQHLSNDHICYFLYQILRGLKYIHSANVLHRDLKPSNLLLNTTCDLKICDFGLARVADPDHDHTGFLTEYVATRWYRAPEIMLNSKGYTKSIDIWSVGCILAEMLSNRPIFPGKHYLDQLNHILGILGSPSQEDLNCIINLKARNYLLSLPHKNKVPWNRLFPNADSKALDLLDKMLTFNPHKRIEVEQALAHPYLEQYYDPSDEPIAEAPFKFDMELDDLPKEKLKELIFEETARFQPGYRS
As to the kind of experiment: His-tag (TALON resin) pull-down from transfected HEK293T cells, Western blot with anti-ERK antibody.
In the case of B19, the binding result was “no binding”.

The target in the next test is T4, endogenous Erk1 of HEK293T cells (UniProt P27361 2-379).
T4 construct: Endogenous intracellular protein, not a recombinant construct; also called Erk1/2
T4 sequence (P27361 2-379 limits assumed): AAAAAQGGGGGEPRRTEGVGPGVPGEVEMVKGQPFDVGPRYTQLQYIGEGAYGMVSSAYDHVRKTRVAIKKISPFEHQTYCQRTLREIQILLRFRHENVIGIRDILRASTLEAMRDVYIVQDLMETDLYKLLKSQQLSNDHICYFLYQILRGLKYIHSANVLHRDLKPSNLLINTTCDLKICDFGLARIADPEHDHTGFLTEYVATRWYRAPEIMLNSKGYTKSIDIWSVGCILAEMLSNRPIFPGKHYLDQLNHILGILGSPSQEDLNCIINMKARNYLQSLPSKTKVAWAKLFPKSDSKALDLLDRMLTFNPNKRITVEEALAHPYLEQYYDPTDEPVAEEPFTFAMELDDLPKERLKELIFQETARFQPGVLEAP
Described as above.
Regarding B19, the binding result is given as “no binding”.

For the origin of these results see patent publication US20130143299A1 (GENEFRONTIER, published 2013).
